Measured values: article PMC10167749

Target: recombinant scavenger receptor cysteine-rich domain 1 of Gp340 (salivary agglutinin), expressed in insect cells (UniProt Q9UGM3)
Experiment: SPR; Biacore T200; iSRCR1 immobilised on a CM5 chip by amine coupling; analyte GtfB-CD 2-8 uM in 20 mM HEPES pH 7.4, 150 mM NaCl, 1 mM CaCl2, 20 ul/min; each concentration in triplicate; kinetic fit with Biacore Insight Evaluation software

Chain of recombinant scavenger receptor cysteine-rich domain 1 of Gp340 (salivary agglutinin), expressed in insect cells (Q9UGM3 20-2413): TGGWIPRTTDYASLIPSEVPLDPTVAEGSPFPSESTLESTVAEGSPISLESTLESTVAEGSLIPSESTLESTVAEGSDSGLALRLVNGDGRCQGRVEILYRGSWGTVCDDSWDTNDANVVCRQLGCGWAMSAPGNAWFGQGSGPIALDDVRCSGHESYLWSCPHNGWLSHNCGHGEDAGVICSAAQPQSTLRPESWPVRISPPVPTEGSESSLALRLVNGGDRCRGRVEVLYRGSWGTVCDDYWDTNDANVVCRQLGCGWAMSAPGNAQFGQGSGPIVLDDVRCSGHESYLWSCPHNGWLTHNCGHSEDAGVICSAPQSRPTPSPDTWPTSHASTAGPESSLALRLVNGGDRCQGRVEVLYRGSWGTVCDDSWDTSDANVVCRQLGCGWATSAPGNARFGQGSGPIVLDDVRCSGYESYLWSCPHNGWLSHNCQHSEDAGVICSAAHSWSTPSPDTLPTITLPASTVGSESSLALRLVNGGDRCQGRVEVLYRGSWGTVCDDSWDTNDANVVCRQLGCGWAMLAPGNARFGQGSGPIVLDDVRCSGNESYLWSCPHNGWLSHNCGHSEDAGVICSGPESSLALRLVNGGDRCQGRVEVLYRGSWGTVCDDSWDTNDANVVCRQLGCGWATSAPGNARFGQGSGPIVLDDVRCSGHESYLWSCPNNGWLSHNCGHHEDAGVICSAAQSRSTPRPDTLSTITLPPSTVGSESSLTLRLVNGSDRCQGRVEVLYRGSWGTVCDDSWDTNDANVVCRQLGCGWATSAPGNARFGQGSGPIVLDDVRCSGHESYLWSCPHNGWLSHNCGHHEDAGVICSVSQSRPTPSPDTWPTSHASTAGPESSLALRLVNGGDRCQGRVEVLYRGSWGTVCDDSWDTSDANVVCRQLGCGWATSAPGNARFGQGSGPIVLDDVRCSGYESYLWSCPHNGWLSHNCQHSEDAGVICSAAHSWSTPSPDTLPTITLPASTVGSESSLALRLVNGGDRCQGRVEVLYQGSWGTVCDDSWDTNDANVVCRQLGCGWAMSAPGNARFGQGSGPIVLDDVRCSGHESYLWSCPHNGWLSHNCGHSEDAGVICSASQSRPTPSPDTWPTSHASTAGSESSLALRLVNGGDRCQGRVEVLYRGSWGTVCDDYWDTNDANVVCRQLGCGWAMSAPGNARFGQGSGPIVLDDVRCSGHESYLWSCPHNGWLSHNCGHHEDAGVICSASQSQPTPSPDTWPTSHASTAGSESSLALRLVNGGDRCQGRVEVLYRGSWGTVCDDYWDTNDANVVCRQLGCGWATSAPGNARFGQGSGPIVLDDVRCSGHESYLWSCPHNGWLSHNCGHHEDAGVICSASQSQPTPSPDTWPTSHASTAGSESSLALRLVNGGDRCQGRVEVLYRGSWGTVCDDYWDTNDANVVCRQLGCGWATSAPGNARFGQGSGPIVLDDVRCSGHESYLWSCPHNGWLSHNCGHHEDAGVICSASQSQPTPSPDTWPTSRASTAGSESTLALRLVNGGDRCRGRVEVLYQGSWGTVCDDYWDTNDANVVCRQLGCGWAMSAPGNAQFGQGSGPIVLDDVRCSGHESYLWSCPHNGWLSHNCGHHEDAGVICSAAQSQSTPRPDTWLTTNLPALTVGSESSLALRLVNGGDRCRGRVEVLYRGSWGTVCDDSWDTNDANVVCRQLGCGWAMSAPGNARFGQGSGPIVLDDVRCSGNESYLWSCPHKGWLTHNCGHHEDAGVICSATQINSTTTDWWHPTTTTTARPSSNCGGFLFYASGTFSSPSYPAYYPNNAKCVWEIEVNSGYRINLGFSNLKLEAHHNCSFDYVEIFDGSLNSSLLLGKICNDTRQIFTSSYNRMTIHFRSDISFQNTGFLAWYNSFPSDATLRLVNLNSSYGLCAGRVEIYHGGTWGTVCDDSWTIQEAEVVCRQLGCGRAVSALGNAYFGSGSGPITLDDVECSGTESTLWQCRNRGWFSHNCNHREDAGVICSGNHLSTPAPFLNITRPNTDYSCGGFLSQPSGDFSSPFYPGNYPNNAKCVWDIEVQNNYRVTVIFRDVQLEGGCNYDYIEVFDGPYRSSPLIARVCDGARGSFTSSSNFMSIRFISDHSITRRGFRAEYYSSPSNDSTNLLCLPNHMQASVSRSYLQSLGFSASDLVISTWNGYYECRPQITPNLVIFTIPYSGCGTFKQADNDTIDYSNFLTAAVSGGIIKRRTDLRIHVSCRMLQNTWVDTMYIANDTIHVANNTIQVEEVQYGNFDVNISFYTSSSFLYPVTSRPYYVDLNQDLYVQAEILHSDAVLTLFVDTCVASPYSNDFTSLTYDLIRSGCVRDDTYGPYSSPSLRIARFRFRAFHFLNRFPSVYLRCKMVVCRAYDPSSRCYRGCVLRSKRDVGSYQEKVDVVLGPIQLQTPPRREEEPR

B1: catalytic domain of Streptococcus mutans (UA159) glucosyltransferase GtfB, residues 191-1051 (domain or fragment)
chain: LHFDETGAYTDTSIDTVNKDIVTTRSNLYKKYNQVYDRSAQSFEHVDHYLTAESWYRPKYILKDGKTWTQSTEKDFRPLLMTWWPSQETQRQYVNYMNAQLGINKTYDDTSNQLQLNIAAATIQAKIEAKITTLKNTDWLRQTISAFVKTQSAWNSDSEKPFDDHLQNGAVLYDNEGKLTPYANSNYRILNRTPTNQTGKKDPRYTADNTIGGYEFLLANDVDNSNPVVQAEQLNWLHFLMNFGNIYANDPDANFDSIRVDAVDNVDADLLQIAGDYLKAAKGIHKNDKAANDHLSILEAWSDNDTPYLHDDGDNMINMDNKLRLSLLFSLAKPLNQRSGMNPLITNSLVNRTDDNAETAAVPSYSFIRAHDSEVQDLIRDIIKAEINPNVVGYSFTMEEIKKAFEIYNKDLLATEKKYTHYNTALSYALLLTNKSSVPRVYYGDMFTDDGQYMAHKTINYEAIETLLKARIKYVSGGQAMRNQQVGNSEIITSVRYGKGALKATDTGDRTTRTSGVAVIEGNNPSLRLKASDRVVVNMGAAHKNQAYRPLLLTTDNGIKAYHSDQEAAGLVRYTNDRGELIFTAADIKGYANPQVSGYLGVWVPVGAAADQDVRVAASTAPSTDGKSVHQNAALDSRVMFEGFSNFQAFATKKEEYTNVVIAKNVDKFAEWGVTDFEMAPQYVSSTDGSFLDSVIQNGYAFTDRYDLGISKPNKYGTADDLVKAIKALHSKGIKVMADWVPDQMYAFPEKEVVTATRVDKFGKPVEGSQIKSVLYVADSKSSGKDQQAKYGGAFLEELQAKYPELFARKQISTGVPMDPSVKIKQWSAKYFNGTNILGRGAGYVLKDQATNTYFNISDNK
Work on B1 yielded a koff of 0.00152 s⁻¹ and a kon of 2990 M⁻¹ s⁻¹.
